# Laboratory results as given in patent publication US20030087316A1, “Diagnostic markers of liver dysfunction” (priority 2001, published 2003).
# Entries after “also recorded” stand apart in the source; their conditions may differ. Non-standard residues stand in square brackets, D forms with d. No end group written: not given here. *: point of attachment. pNA = O=[N+]([O-])c1ccc(N*)cc1
# T1: C1s (Homo sapiens, UniProt P09871)
# T1 construct: purchased Advanced Research Technologies (San Diego, Calif.)
# T1 sequence (P09871 438-688 limits assumed): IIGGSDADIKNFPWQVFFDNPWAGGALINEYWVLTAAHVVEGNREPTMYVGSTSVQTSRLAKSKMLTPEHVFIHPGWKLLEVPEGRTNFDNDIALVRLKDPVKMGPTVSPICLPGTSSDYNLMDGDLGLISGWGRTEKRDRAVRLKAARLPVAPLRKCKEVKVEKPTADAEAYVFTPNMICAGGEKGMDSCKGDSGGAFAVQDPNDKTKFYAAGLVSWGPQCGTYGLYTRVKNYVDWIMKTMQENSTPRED
# T1 sequence (P09871 16-437 partner limits assumed): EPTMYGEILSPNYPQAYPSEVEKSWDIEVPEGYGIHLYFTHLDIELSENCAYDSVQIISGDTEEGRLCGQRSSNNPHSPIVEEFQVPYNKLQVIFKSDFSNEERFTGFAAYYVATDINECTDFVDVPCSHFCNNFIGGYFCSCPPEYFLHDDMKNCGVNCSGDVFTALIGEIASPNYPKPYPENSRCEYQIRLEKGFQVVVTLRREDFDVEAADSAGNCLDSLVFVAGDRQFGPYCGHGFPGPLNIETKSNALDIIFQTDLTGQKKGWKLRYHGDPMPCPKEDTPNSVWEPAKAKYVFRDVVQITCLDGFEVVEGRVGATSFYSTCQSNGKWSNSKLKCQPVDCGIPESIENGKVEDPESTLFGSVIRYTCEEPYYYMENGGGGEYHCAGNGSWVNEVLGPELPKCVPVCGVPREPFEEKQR
# B1: SBTI: soybean trypsin inhibitor, purchased from Sigma Chemical (protein, UniProt P01070 25-205, looked up)
# Trypsin inhibitor A: DFVLDNEGNPLENGGTYYILSDITAFGGIRAAPTGNERCPLTVVQSRNELDKGIGTIISSPYRIRFIAEGHPLSLKFDSFAVIMLCVGIPTEWSVVEDLPEGPAVKIGENKDAMDGWFRLERVSDDEFNNYKLVFCPQQAEDDKCGDIGISIDHDDGTRRLVVSKNKPLVVQFQKLDKESL
# Experiments:
# [1] = target: T2, thrombin (Homo sapiens, UniProt P00734); assay: Peptidase (amidolytic) activity of purified thrombin, chromogenic substrate, OD 405 nm; assay type: biochemical; conditions: for Cleavage of the substrate by thrombin, in words: enzyme 10 nM, 37° C., 15 min (FIG. 7)
# T2 construct: purchased Calbiochem-Novabiochem Corp (La Jolla, Calif.)
# [2] = target: T3, β-Factor XIIa (β-FXIIa) (Homo sapiens, UniProt P00748); assay: Peptidase (amidolytic) activity of purified β-FXIIa, chromogenic substrate, OD 405 nm; assay type: biochemical; conditions: for Cleavage of the substrate by β-FXIIa, in words: enzyme 10 nM, 37° C., 15 min (FIG. 7)
# T3 construct: β-Factor XIIa (β-FXIIa) was kindly provided by Dr. Mary J. Heeb; gift of Dr. Mary J. Heeb, The Scripps Research Institute
# Description: (§1) The peptidase activity in plasma samples or of the purified enzymes were routinely determined at 37° C. in a 96-well plate. Each well contained 0.5 mM substrate in 100 μl of Tris-buffered saline (TBS)-EDTA buffer (50 mM Tris/150 mM NaCl/10 mM EDTA, pH 7.8) and the reaction was monitored using a microplate reader (Titertek Multiscan, Labsystems, Needham Heights, Mass.).
# (§2) […] EDTA plasma samples from LTR were diluted 10 or 20-fold with TBS-EDTA. The chromogenic substrate AGLTR-pNA was used for all enzymes and LTR samples except C1s where the substrate S2288 was used. Based on the initial rate of increase in OD at 405 nm, the residual free enzyme level was calculated and expressed as a percentage of total activity without inhibitor added.
# (§3) Ten-fold diluted normal EDTA plasma was added to each enzyme. […] LTR samples were 10 or 20-fold diluted with TBS-EDTA. The chromogenic substrate AGLTR-pNA was used for all enzymes and LTP samples except C1s where the substrate S2288 was used. Based on the initial rate of increase in OD at 405 nm, the residual free enzyme was calculated and expressed as a percentage of total activity determined without inhibitor added.
# [3] = target: T1, C1s; assay: Peptidase (amidolytic) activity of purified C1s, chromogenic substrate, 96-well plate, OD 405 nm; assay type: biochemical; conditions: enzyme 10 nM, 37° C., 15 min (FIG. 7)
# [4] = target: T4, plasma kallikrein (Homo sapiens, UniProt P03952); assay: Peptidase (amidolytic) activity of purified plasma kallikrein, chromogenic substrate, OD 405 nm; assay type: biochemical; conditions: for Cleavage of the substrate by plasma kallikrein, in words: enzyme 10 nM, 37° C., 15 min (FIG. 7)
# T4 construct: The light chain of kallikrein contains the enzymatic domain; purchased Calbiochem-Novabiochem Corp (La Jolla, Calif.)
# Description: as §1, §2, §3
# [5] = test system: trypsin; assay: Peptidase (amidolytic) activity of purified trypsin, chromogenic substrate, OD 405 nm; assay type: biochemical; conditions: enzyme 10 nM, 37° C., 15 min (FIG. 7)
# [6] = test system: tissue kallikrein; assay: Peptidase activity of purified tissue kallikrein on chromogenic substrates; assay type: biochemical; conditions: enzyme 10 nM, 37° C., 15 min (FIG. 7)
# Description: as §1
# [7] = target: T5, plasmin (Homo sapiens, UniProt P00747); assay: Peptidase (amidolytic) activity of purified plasmin, chromogenic substrate, OD 405 nm; assay type: biochemical; conditions: enzyme 10 nM, 37° C., 15 min (FIG. 7)
# T5 construct: purchased Calbiochem-Novabiochem Corp (La Jolla, Calif.)
# [8] = test system: proteinase(s) in EDTA plasma from LTR (kallikrein-like peptidase); assay: Peptidase activity in EDTA plasma from liver transplant recipients (LTR), chromogenic substrate, OD 405 nm; assay type: biochemical, human; conditions: Sephacryl S-300 fractions of LTR plasma, 37° C. (FIG. 4)
# [9] = test system: trypsin; assay: Peptidase (amidolytic) activity of purified trypsin, chromogenic substrate, OD 405 nm; assay type: biochemical; conditions: Table 2
# Description: as §1
# (§4) The enzymes C1s (100 nM), plasm in (100 nM), thrombin (100 nM), plasma kallikrein (20 nM), β-FXIIa (100 nM), trypsin (16 nM) or LTR EDTA plasma samples were incubated for 60 min at 4° C. with TBS-EDTA buffer containing either LBTI (1 mg/ml), SBTI (I mg/ml), aprotinin (0.075 mg/ml), benzamidine (50 mM), or Futhan (0.1 mg/ml), before mixing with the substrate. EDTA plasma samples from LTR were diluted 10 or 20-fold with TBS-EDTA. The chromogenic substrate AGLTR-pNA was used for all enzymes and LTR samples except C1s where the substrate S2288 was used. Based on the initial rate of increase in OD at 405 nm, the residual free enzyme level was calculated and expressed as a percentage of total activity without inhibitor added.
# [10] = target: T1, C1s; assay: Peptidase (amidolytic) activity of purified C1s, chromogenic substrate, 96-well plate, OD 405 nm; assay type: biochemical
# Description: as §1, §4
# (§5) Ten-fold diluted normal EDTA plasma was added to each enzyme. The enzymes C1s (100 nM), plasmin (100 nM), thrombin (100 nM), plasma kallikrein (20 nM), β-FXIIa (100 nM), trypsin (16 nM) or LTR EDTA plasma samples were incubated for 60 min at 4° C. with TBS-EDTA buffer containing either C1INH (40 μg/ml), bdellin (50 μg/ml), hirudin (50 U/ml), PPACK 11(10 μM), or CTI (100 μg/ml), before adding the substrate. LTR samples were 10 or 20-fold diluted with TBS-EDTA. The chromogenic substrate AGLTR-pNA was used for all enzymes and LTP samples except C1s where the substrate S2288 was used. Based on the initial rate of increase in OD at 405 nm, the residual free enzyme was calculated and expressed as a percentage of total activity determined without inhibitor added.
# [11] = test system: proteinase(s) in EDTA plasma from LTR (kallikrein-like peptidase); assay: Peptidase activity in EDTA plasma from liver transplant recipients (LTR), chromogenic substrate, OD 405 nm; assay type: biochemical, human
# Description: Blood samples were drawn into 5 ml EDTA tubes (Venoject; Terumo Corp., Elkton, Md.). The plasma was collected immediately by centrifugation at 2,000×g for 15 min at 4° C. The plasma samples were either processed immediately for analysis or stored at −70° C. Frozen samples were thawed at 4° C. prior to analysis.
# as §1, §4, §5
# [12] = target: T5, plasmin; assay: Peptidase (amidolytic) activity of purified plasmin, chromogenic substrate, OD 405 nm; assay type: biochemical; conditions: Table 2
# Description: as §1, §4, §5
# [13] = text on Tables 2 and 3, concentrations as there
# T5 sequence (P00747 581-810 limits assumed, species assumed): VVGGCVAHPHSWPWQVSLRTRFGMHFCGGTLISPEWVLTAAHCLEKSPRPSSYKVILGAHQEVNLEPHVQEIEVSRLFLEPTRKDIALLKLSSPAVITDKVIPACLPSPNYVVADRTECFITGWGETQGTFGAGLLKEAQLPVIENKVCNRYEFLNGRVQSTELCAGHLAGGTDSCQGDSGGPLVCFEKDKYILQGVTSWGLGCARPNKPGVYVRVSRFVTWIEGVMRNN
# T5 sequence (P00747 97-580 partner limits assumed, species assumed): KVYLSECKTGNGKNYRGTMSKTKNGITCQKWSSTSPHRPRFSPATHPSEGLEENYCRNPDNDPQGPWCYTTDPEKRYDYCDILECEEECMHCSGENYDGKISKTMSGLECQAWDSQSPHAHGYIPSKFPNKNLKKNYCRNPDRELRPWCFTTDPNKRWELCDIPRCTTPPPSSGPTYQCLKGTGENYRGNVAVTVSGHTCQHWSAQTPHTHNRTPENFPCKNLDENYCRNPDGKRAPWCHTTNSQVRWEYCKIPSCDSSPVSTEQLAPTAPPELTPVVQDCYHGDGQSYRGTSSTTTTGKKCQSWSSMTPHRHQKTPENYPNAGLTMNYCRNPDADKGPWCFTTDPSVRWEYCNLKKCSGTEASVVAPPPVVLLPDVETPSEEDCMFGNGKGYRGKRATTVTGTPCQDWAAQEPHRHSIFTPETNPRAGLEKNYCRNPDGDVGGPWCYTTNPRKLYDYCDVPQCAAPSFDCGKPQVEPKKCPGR
# T4 sequence (P03952 391-638 limits assumed): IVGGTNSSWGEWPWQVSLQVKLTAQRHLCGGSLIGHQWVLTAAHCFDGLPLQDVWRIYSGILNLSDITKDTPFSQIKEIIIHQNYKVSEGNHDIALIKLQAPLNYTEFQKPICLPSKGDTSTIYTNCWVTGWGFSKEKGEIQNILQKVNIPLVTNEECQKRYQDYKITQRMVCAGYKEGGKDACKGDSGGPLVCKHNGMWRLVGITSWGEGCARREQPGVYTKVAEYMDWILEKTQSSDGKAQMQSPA
# T4 sequence (P03952 20-390 partner limits assumed): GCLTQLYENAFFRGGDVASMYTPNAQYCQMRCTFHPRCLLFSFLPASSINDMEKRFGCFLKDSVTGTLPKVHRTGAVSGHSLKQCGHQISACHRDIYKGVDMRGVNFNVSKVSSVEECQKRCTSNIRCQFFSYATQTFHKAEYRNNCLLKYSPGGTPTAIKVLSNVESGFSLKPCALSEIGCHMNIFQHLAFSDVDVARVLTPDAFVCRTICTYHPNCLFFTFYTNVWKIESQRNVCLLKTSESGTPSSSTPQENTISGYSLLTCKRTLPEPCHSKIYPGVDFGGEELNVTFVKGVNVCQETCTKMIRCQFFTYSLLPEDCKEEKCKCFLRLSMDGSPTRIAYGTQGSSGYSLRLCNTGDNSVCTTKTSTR
# T3 sequence (P00748 373-615 limits assumed, other chains not shown): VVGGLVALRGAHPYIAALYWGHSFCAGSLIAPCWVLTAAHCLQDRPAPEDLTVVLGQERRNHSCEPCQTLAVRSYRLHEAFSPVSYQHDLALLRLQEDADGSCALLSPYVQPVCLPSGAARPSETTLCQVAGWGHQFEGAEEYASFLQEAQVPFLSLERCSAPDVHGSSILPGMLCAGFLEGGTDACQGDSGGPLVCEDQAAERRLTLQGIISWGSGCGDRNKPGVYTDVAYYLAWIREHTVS
Molecule,"Cleavage of the substrate by thrombin, in words [1]","Cleavage of the substrate by β-FXIIa, in words [2]","Cleavage of the substrate by C1s, in words [3]","Cleavage of the substrate by plasma kallikrein, in words [4]","Cleavage of the substrate by trypsin, in words [5]","Cleavage of the substrate by tissue kallikrein, in words [6]","Cleavage of the substrate by plasmin, in words [7]","Rate of conversion of the substrate by gel filtered LTR plasma, relative to AGLTR-pNA, in words [8]",other results
Ac-Ala-Gly-Leu-Thr-Arg-p-nitroanilide (Ac-AGLTR-pNA; SMILES CC(=O)N[C@@H](C)C(=O)NCC(=O)N[C@@H](CC(C)C)C(=O)N[C@H](C(=O)N[C@@H](CCCNC(=N)N)C(=O)Nc1ccc([N+](=O)[O-])cc1)[C@@H](C)O),poorly cleaved,almost no ability to cleave this substrate,almost no ability to cleave this substrate; also recorded: neither C1s nor any of the other proteinases efficiently cleaved this substrate,cleaved AGLTR-pNA relatively efficiently,cleaved AGLTR-pNA relatively efficiently,almost no ability to cleave this substrate,poorly cleaved,–,–
[dI]-Pro-Arg-pNA [S2288],cleaved substrate S2288 more efficiently than S2302; also recorded: preferred S2288 over either AGLTR-pNA or S2302,least active on these substrates,least active on these substrates,cleaved S2302 more rapidly than S2288,cleaved substrate S2288 more efficiently than S2302,least active on these substrates,least active on these substrates,somewhat greater than that using AGLTR-pNA,–
[dP]-Phe-Arg-pNA [S2302],cleaved substrate S2288 more efficiently than S2302,least active on these substrates,least active on these substrates,cleaved S2302 more rapidly than S2288,cleaved substrate S2288 more efficiently than S2302,least active on these substrates,least active on these substrates,somewhat greater than that using AGLTR-pNA,–
B1,–,–,–,–,–,–,–,–,"Inhibition of trypsin amidolytic activity, in words ([9]; concentrations as there): efficiently inhibited; % Residual activity, Trypsin ([9]; trypsin 16 nM, substrate AGLTR-pNA, 60 min at 4° C. with LBTI 1 mg/ml, SBTI I mg/ml, aprotinin 0.075 mg/ml, benzamidine 50 mM or Futhan 0.1 mg/ml): 5.3%; % Residual activity, Thrombin ([1]; Table 2, thrombin 100 nM, substrate AGLTR-pNA, 60 min at 4° C. with LBTI 1 mg/ml, SBTI I mg/ml, aprotinin 0.075 mg/ml, benzamidine 50 mM or Futhan 0.1 mg/ml): 46.7%; % Residual activity, β-FXIIa ([2]; Table 2, β-FXIIa 100 nM, substrate AGLTR-pNA, 60 min at 4° C. with LBTI 1 mg/ml, SBTI I mg/ml, aprotinin 0.075 mg/ml, benzamidine 50 mM or Futhan 0.1 mg/ml): 109.1%; % Residual activity, C1s ([10]; Table 2, C1s 100 nM, substrate S2288, 60 min at 4° C. with LBTI 1 mg/ml, SBTI I mg/ml, aprotinin 0.075 mg/ml, benzamidine 50 mM or Futhan 0.1 mg/ml, % of total activity without inhibitor): 123.6%; Inhibition of C1s, in words [10, 13]: but not C1s; % Residual activity, Plasma Kallikrein ([4]; Table 2, plasma kallikrein 20 nM, substrate AGLTR-pNA, 60 min at 4° C. with LBTI 1 mg/ml, SBTI I mg/ml, aprotinin 0.075 mg/ml, benzamidine 50 mM or Futhan 0.1 mg/ml): 2.2%; Inhibition of purified plasma kallikrein activity, in words [4, 13]: efficiently inhibited; % Residual activity, LTR 1 ([11]; Table 2, LTR 1 EDTA plasma diluted 10 or 20-fold, substrate AGLTR-pNA, 60 min at 4° C. with LBTI 1 mg/ml, SBTI I mg/ml, aprotinin 0.075 mg/ml, benzamidine 50 mM or Futhan 0.1 mg/ml): 44.2%; % Residual activity, LTR 2 ([11]; Table 2, LTR 2 EDTA plasma diluted 10 or 20-fold, substrate AGLTR-pNA, 60 min at 4° C. with LBTI 1 mg/ml, SBTI I mg/ml, aprotinin 0.075 mg/ml, benzamidine 50 mM or Futhan 0.1 mg/ml): 61.9%; % Residual activity, LTR 3 ([11]; Table 2, LTR 3 EDTA plasma diluted 10 or 20-fold, substrate AGLTR-pNA, 60 min at 4° C. with LBTI 1 mg/ml, SBTI I mg/ml, aprotinin 0.075 mg/ml, benzamidine 50 mM or Futhan 0.1 mg/ml): 28.8%; Inhibition of the LTR plasma peptidase activity, in words [11, 13]: only partially effective; Inhibition of plasmin amidolytic activity, in words ([12]; concentrations as there): efficiently inhibited; % Residual activity, Plasmin ([12]; plasmin 100 nM, substrate AGLTR-pNA, 60 min at 4° C. with LBTI 1 mg/ml, SBTI I mg/ml, aprotinin 0.075 mg/ml, benzamidine 50 mM or Futhan 0.1 mg/ml): 3.7%"
